For one protein, Km and kcat results are on record in PMC428907.

Substrate in data set [1]: Nc1nc2c([nH]c(=O)n2[C@H]2C[C@H](O)[C@@H](COP(=O)(O)OP(=O)(O)O)O2)c(=O)[nH]1
Description: purified protein. The following applies: pH 9.4, 7.5 mM Mg2+ (optimal conditions), 37°C.

Substrate in data set [2]: Nc1nc2c(ncn2[C@H]2C[C@H](O)[C@@H](CO[P@](=O)(O)OP(=O)(O)O)O2)c(=O)[nH]1
As to the kind of experiment: purified protein. The following applies: pH 9.4, 7.5 mM Mg2+ (optimal conditions), 37°C.

B1: DR0975 protein (Deinococcus radiodurans R1 = ATCC 13939 = DSM 20539) (protein)
chain: MGRRDLLVAAGILRDRFGRVLLVGNDWQGHGRVRHTLPGGVVEHGETLPEALYREIYEETGLKLTGIKHMAYTVHIEDERRGERAIAVAFEATWEGLLNPADPDGFIVEARFCTVDEALDKLDSPPMREPLADYLNTGEPGRFYAFKGWDGRGGLRIPTLKPVVKDR
Regarding B1, in the data set “purified protein [1]”, the Michaelis-Menten constant (Km) turned out to be 170 µM and the kcat is 0.13 s⁻¹. Further, in the data set “purified protein [2]”, the Km is 110 µM and the kcat came to 0.18 s⁻¹.

Usually Km stands for the substrate concentration at which the rate is half of its maximum. Broadly, the kcat is the maximal rate divided by the concentration of active sites.
